{"source": "paper PMC9481161", "target": "His6-MglB (Myxococcus xanthus) (UniProt Q1DB03)", "sequence (Q1DB03 entry or part of it)": "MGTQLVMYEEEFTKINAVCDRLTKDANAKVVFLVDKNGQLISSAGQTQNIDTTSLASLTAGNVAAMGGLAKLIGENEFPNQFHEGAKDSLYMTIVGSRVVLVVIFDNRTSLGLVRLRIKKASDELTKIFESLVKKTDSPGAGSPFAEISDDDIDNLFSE"}
{"substance": "Strep-RomY (natural protein)", "values": [{"measurement": "MglA GTPase activity, malachite green-based assay; 3 μM MglA-His6 mixed 1:2:2 with MglB and Strep-RomY (against ~18 with MglB alone)", "result": 31, "unit": "GTP/MglA/hr"}, {"measurement": "MglA GTPase activity, regenerative coupled enzyme assay; 3 μM MglA-His6 mixed 1:2:2 with MglB and Strep-RomY (against ~12 with MglB alone)", "result": 25, "unit": "GTP/MglA/hr"}]}
